The target of experiment [1] is T1, membrane-type IL-6R on cells (U266B1, TF-1, Hep3B) (UniProt P08887 20-468, limits assumed).
T1 sequence (looked up): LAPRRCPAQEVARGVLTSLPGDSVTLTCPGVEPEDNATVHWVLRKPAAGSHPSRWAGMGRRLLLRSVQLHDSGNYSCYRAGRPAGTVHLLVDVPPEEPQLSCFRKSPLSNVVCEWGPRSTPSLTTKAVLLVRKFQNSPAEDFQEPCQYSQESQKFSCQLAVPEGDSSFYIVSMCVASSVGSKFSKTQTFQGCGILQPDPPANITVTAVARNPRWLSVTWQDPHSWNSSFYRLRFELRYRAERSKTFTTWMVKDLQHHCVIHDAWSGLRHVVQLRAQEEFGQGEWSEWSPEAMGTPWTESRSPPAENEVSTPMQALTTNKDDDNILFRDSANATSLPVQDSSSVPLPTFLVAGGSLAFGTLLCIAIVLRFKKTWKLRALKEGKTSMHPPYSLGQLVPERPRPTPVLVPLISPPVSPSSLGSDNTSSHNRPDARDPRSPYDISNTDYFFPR
In words: cell-based or functional assay.

The target of experiment [2] is T2, hIL-6R.BP15 (human interleukin-6 receptor with BP15 tag, biotinylated) (human, UniProt P08887 20-365, site-directed biotinylation on the BP15 tag).
T2 sequence: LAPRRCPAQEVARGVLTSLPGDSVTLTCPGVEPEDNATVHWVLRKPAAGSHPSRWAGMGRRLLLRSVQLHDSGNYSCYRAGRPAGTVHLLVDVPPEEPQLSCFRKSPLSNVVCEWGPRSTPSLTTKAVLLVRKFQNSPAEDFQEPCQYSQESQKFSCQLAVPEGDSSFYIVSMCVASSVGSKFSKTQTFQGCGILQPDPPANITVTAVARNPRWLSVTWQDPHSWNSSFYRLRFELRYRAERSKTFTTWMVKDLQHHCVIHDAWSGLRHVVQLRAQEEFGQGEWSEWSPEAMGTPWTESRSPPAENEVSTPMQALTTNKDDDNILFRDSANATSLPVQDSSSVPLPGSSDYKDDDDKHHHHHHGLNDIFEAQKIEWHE
In words: blocking ELISA: coated IL-6.Fc, 1 ng/ul biotinylated IL-6R.BP15 with serially diluted antibody, HRP-streptavidin, OD450; blocked ligand IL-6.Fc; unit from the abscissa. Here is the method: The formation of IL-6R/IL-6 complex can be blocked by the binding of IL-6R antibody to IL-6R, indicating the downstream cell signaling could be blocked by preventing IL-6/IL-6Rcomplex formationon the cell membrane. All of the expressed the purified antibodies were tested for their abilities to block the binding between IL-6 and IL-6R by ELISA. The procedures was descripted as follows:
The plates were coated with100 μl of 2 ng/μl IL-6.Fc at 4° C. overnight, and blocked with 2% skim milk at 37° C. for 1 hour. The plates were then washed, incubated with 100 μl of serial diluted testing samples with and 1 ng/μl IL-6R.BP15. After 1 hourincubation at 37° C,. the plates were washed andHRP-streptavidin (Jackson, 016-030-084) diluted at 1:4000 was added to the plate followed by incubation. After wash and 100 μl TMB develoment at room temperature for 5 min. 100 μl of 1M H₂SO₄ was added to terminate the reaction. The OD₄₅₀ values were read.
(In an ELISA, binding on a coated surface is turned into a signal by an enzyme label.)

Experiment [3] deals with T2, hIL-6R.BP15 (human interleukin-6 …). In words: blocking ELISA: coated gp130, IL-6.his and IL-6R.BP15 (0.06 ug/ml) with serially diluted antibody, HRP-streptavidin, OD450; blocked: binding of the IL-6/IL-6R complex to gp130; unit from the abscissa. Here is the method:
The complex of IL-6 and IL-6R can bind to GP130. The assay will evaluate if the selected antibodies were able to block the formation of IL-6/IL-6R/gp130 complex by binding to IL-6R. The plates were coated with 1 μg/ml gp130 (diluted in PBS) at 4° C. overnight. The coating solution was discarded, and plates were blocked with 5% skim milk in PBS at 37° C. for 2-3h. After blocking, the plates were washed 3 times with washing buffer PBST (0.1% Tween-20 in PBS).
IL-6.his and IL-6R.BP15 were diluted with 1% BSA in PBS to a concentration of 0.06 μg/ml. Starting at 50 ug/ml, IL-6R antibodies were 1:3 serially diluted in dilution buffer and Both testing antibody samples and IL-6/IL-6R complex were added to the plate followed by lh incubation at 37° C. After that, the plates were washed for 3 times with washing buffer PBST (0.1% Tween-20 in PBS).
1:2000 diluted Secondary antibody HRP streptavidin (Jackson, 016-030-084) was added to the plate followed by 1 h incubation at 37° C.After incubation and wash,. TMB was used for development. OD₄₅₀ values were read.

B1: Tocilizumab (antibody, human IgG1, kappa, V domains shown)
VH: EVQLQESGPGLVRPSQTLSLTCTVSGYSITSDHAWSWVRQPPGRGLEWIGYISYSGITTYNPSLKSRVTMLRDTSKNQFSLRLSSVTAADTAVYYCARSLARTTAMDYWGQGSLVTVSS
VL: DIQMTQSPSSLSASVGDRVTITCRASQDISSYLNWYQQKPGKAPKLLIYYTSRLHSGVPSRFSGSGSGTDFTFTISSLQPEDIATYYCQQGNTLPYTFGQGTKVEIKR
notes: Positive control; also called anti-IL-6R humanized mAb tocilizumab
With B1, in experiment [1], the “Relative expression level of hepcidin mRNA (fold) in Hep3B cells with 5 nM antibody and 10 ng/ml IL-6 (blank 1; IL-6 only 2.783)” value worked out at 1.87 fold. Moreover, the results for the half-inhibitory concentration (IC50) in experiment [2] and in experiment [3] were 0.466 µg/mL and 0.49 µg/mL, respectively.

B2: Sari (antibody, human IgG1, kappa, V domains shown)
VH: EVQLVESGGGLVQPGRSLRLSCAASRFTFDDYAMHWVRQAPGKGLEWVSGISWNSGRIGYADSVKGRFTISRDNAENSLFLQMNGLRAEDTALYYCAKGRDSFDIWGQGTMVTVSS
VL: DIQMTQSPSSVSASVGDRVTITCRASQGISSWLAWYQQKPGKAPKLLIYGASSLESGVPSRFSGSGSGTDFTLTISSLQPEDFASYYCQQANSFPYTFGQGTKLEIKR
notes: Positive control antibody; also called Sarilumab; anti-IL-6R antibody sarilumab (Regeneron)
As to B2, the IC50 in experiment [2] stood at 0.5 µg/mL; in experiment [3], 0.0474 µg/mL.

In general, IC50 refers to the point on the concentration scale where inhibition reaches its midpoint.

These data come from US20200369774A1 (JIANGSU HENGRUI MEDICINE, published 2020).
